The values that follow are results of earlier work, collected in patent US12258594B2, “Cas proteins with reduced immunogenicity and methods of screening thereof” (THE BROAD INSTITUTE, INC., priority 2018, dated 2025).

Positions count from the first letter of the chain named.

The chains are these.
B1: Phe995: LbuCas13a with Phe995 substituted with alanine (protein, UniProt C7NBY4 1-1159, looked up, variant F995A)
CRISPR-associated …: MKVTKVGGISHKKYTSEGRLVKSESEENRTDERLSALLNMRLDMYIKNPSSTETKENQKRIGKLKKFFSNKMVYLKDNTLSLKNGKKENIDREYSETDILESDVRDKKNFAVLKKIYLNENVNSEELEVFRNDIKKKLNKINSLKYSFEKNKANYQKINENNIEKVEGKSKRNIIYDYYRESAKRDAYVSNVKEAFDKLYKEEDIAKLVLEIENLTKLEKYKIREFYHEIIGRKNDKENFAKIIYEEIQNVNNMKELIEKVPDMSELKKSQVFYKYYLDKEELNDKNIKYAFCHFVEIEMSQLLKNYVYKRLSNISNDKIKRIFEYQNLKKLIENKLLNKLDTYVRNCGKYNYYLQDGEIATSDFIARNRQNEAFLRNIIGVSSVAYFSLRNILETENENDITGRMRGKTVKNNKGEEKYVSGEVDKIYNENKKNEVKENLKMFYSYDFNMDNKNEIEDFFANIDEAISSIRHGIVHFNLELEGKDIFAFKNIAPSEISKKMFQNEINEKKLKLKIFRQLNSANVFRYLEKYKILNYLKRTRFEFVNKNIPFVPSFTKLYSRIDDLKNSLGIYWKTPKTNDDNKTKEIIDAQIYLLKNIYYGEFLNYFMSNNGNFFEISKEIIELNKNDKRNLKTGFYKLQKFEDIQEKIPKEYLANIQSLYMINAGNQDEEEKDTYIDFIQKIFLKGFMTYLANNGRLSLIYIGSDEETNTSLAEKKQEFDKFLKKYEQNNNIKIPYEINEFLREIKLGNILKYTERLNMFYLILKLLNHKELTNLKGSLEKYQSANKEEAFSDQLELINLLNLDNNRVTEDFELEADEIGKFLDFNGNKVKDNKELKKFDTNKIYFDGENIIKHRAFYNIKKYGMLNLLEKIADKAGYKISIEELKKYSNKKNEIEKNHKMQENLHRKYARPRKDEKFTDEDYESYKQAIENIEEYTHLKNKVEFNELNLLQGLLLRILHRLVGYTSIWERDLRFRLKGEFPENQYIEEIFNAENKKNVKYKGGQIVEKYIKFYKELHQNDEVKINKYSSANIKVLKQEKKDLYIRNYIAHFNYIPHAEISLLEVLENLRKLLSYDRKLKNAVMKSVVDILKEYGFVATFKIGADKKIGIQTLESEKIVHLKNLKKKKLMTDRNSEELCKLVKIMFEYKMEEKKSEN
B2: Lys998: LbuCas13a with Lys998 substituted with alanine (protein, UniProt C7NBY4 1-1159, looked up, variant K998A)
CRISPR-associated …: B1 CRISPR-associated … with A995F, K998A
B3: Asn997: LbuCas13a with Asn997 substituted with alanine (protein, UniProt C7NBY4 1-1159, looked up, variant N997A)
CRISPR-associated …: B1 CRISPR-associated … with A995F, N997A

The subject of the data set is target RNA. Particulars: LbuCas13a HEPN mutants.
For B1, the “cleavage of target and non-target ssRNA substrate” value is “significantly reduced the cleavage of both target and non-target ssRNA substrate”.

On to B2, for which the “cleavage of target and non-target ssRNA substrate” value was “significantly reduced the cleavage of both target and non-target ssRNA substrate”.

B3: the “cleavage of target and non-target ssRNA substrate” value is “significantly reduced the cleavage of both target and non-target ssRNA substrate”.
